16 sequences from a protein production outcome set (Wang et al. 2014) can be followed below.

The data set is described as follows: label from the status in PepcDB records.
Regarding “MLSIIIPVYNEKGNILELTSRIKSALKNNEYEIVFVDDSTDETPKIIESLALKYNNIRLKHRKGKKGLSSAVIDGFKLARGDVLSVMDGDLQHPPEMLESMLFQMKKDTDIVICSRFVLGGKEEGLNIFRKFASFIARLIGKIFLKPLRKISDPTAGFFMLKRKVIKNRDLRAIGWKILIEILVMGDYKRVVELPYSFKRRKHEKSKFTISVQGQYLKQIVSLFIRSKKYNIKLEHHHHHH”, the protein production result was “not failed”. Consider “MEDFYLNSRGLAGYFEAQWFDKFVEDKQVDAITSESKLVPLSFAKSSHCSQVADFITQAVSKNGKPPHALLGVGAALGRNYYELVQRLDSLKQATLVEPSGMLLNGLKQLLVEEQQVELTYIHGLNTLKTVEVDNRELVQNCAHVDLELINQPLEKDTVSKFYDLVVCLNVLDQCESPLRVINALKQATQIGGVLVVSCTYQWNAKHIKDRAEAVDDIKAYFGEDWRFVSEAEHEYRMRFNERYAMQFLSHVVAYVRTT”, for which the protein production result is “failed”. The value for “MEDGIENTSPFNGNGESGFFKLPDREILESFRLQKVFPDSPFGFPSGHVALTTALWGGASRVFNSRTAGRLAPMVVLLMAFSRMYLGRHFLGDVIGGAALGLTLLVVFTYFLKSPLKDDFFEKENFKLAFRQKNLFFYSAMFAVPVVFVSLSLISGEVAGFFLGTNTAYLLIIRKGLPEDEGSTGQRALRVFITLMMFGLSALVLDAGFGIIGIAGYPDDTLIEFLKSFIPAFTIWISVSICIKLGLYNIASTEQIE” was “failed”. The value for “MEFNDLGITIKELRIKKNISQSELCHGICSQSQISKIEKGMIYPSSILLYQLSERLGIDPNNIFALTQNKRLKYVENVKYVIKDCLKQKQYKELYEIVKKEKNLNNFQTKDEKQFLMWHEAIAIFMVDKSIKTALDFLNNALKLTLTNSDFLSEREIDIMQTMAIFYAENKEYEKSINIFKRCLTNFNKLDFPRDKEIKLKLMLNLAKCFDFTYQHEEAIKYIDKGIKLAINLNTLYLLGELFYLKGQCLLKMKQHNVEDVIYNWKKALFIFELTEKEYYTKMLPDELIELQNKKHS” was “failed”; that for “MTAASFAQILLLLGTTALVVAVFQWLRVPSSLAYLVVGVLLGPHTGGPVIENPEIHGAAEFGIVFLMFTIGLNLSLPQVHALRHLVLGLGTGQVVLTTLVVGAAAFAFGLSPEAAFVVGAVFAQSSTAIIGKQLAEQGEEYSRHGRLAVAMSVFQDVTAVPLIVVVPVLAVPSLRVLGESLAWALAKAVLAFVLVFFAGRWLLRPLFHAVASRRSAELFTLTVLLVSLGAGGLTYQLGLSVAFGAFLVGMMLGETEFRHQVESTIRPFRDVLLGLFFVSIGMLFDPSLMEGTWQWALGGAFVLLAAKTVLVAVLVRATGIDLATAWRVGLLVAVGGEFGFALLAIALDAGVISQLTGQIVLMAVLLSMITAPFLIRYNRVLVEGWFRPPPGEEGALSAGPGVAGSPHDHVIICGYGRIGQNIGRFLEEERIPYVALDLDPQRVKEARIACEPVYYGDSSERDMLEAVGIGKARLVVVSHEDLAAAHKVLHHAAALRPGLPVMVRTRDESHVEELRRAGAAEVVPETLEAGLMIASQALLLLNVPLSRVARRIREQRLNRYLLLREFFRGDETFSDDVQSQDGDRLRAVPLPPGCRVAGCTLAELALENVVVTALVRHGVRELAPAPETRLAEGDAVVLFGAVSDLDKAERRLLG” was “failed”; that for “MTREMARLLISPSNAWPRLRQDYDHHPFAFLVPLLLLPLLPAACLFIGTTQVGWSLPGNDSVQHLSSGSALLLATMCYLGFVAGVVIMGLFVRWVLFRTPSRPSVPGSLTFTTAIAVPLMLAGIVALVPWRILLLLAAAAACAYSVRLLFTGLPLFMRMQERQTLFYAFCILGVGFLTLLTTAFIFIELWGQSLAGSGEYLR” was “failed”. The same measure for “MAKGDVITLNFETFVDSDTQVKVTRLTPTDVICHRNYFYQKCFTQDGKKLLFAGDFDGNRNYYLLNLETQQAVQLTEGKGDNTFGGFISTDERAFFYVKNELNLMKVDLETLEEQVIYTVDEEWKGYGTWVANSDCTKLVGIEILKRDWQPLTSWEKFAEFYHTNPTCRLIKVDIETGELEVIHQDTAWLGHPIYRPFDDSTVGFCHEGPHDLVDARMWLVNEDGSNVRKIKEHAEGESCTHEFWIPDGSAMAYVSYFKGQTDRVIYKANPETLENEEVMVMPPCSHLMSNFDGSLMVGDGCDAPVDVADADSYNIENDPFLYVLNTKAKSAQKLCKHSTSWDVLDGDRQITHPHPSFTPNDDGVLFTSDFEGVPAIYIADVPESYKHLEHHHHHH”: “not failed”; for “MEPAILIITLICGMLVSRIGLPPLIGYLVAGFVLFVMGIEKESMPLLQELANLGVTLLLFAIGLKLDIRSLFKAEVWAGSSVHLILSILVFVPILKILGLLGLSQLTSLGIEQLTLLAFALSFSSTVFAVKVLEDKGDMQSLYGRVAIGILIMQDIFAVLFLTISKGDVPSVWAFALLLLPLAKPLIYKAFDRVGHGELLVLFGLVMALVVGAWLFESLGLKPDLGALVIGILLAGHKKASELAKSLFYFKELFLVAFFLTIGLNGLPTVSDIVLAALLVLLVPLKILLFVYILTRFKLRSRTSMLGSFNLGNFSEFGLIVAAVATSKGWLPSHWLVIIAVALSFSFLLAAPLNATVGSIYQRFQLRLVRLEKRPLHPEDRPIAIGNPRFLILGMGRIGSGAYDELRARFDGEILGIEHKQDLVDLHRAKGRNVVQGDASDTDFWEKLDKAPNLELVLLAMPHHAGNLFAVEQLNKLNYQGKISAIVQYGEDAASLRNSGVHSVYNLYEAAGAGFVDHVVHELLPDSETKAGTEAQEGTQKQTSSLV”: “failed”; for “MSAVTYTFLGPQGTFTEAALMQVPGAADATRIPCTNVNTALERVRAGEADAAMVPIENSVEGGVTATLDAIATGQELRIIREALVPITFVLVARPGVELSDIKRISTHGHAWAQCRLWVDEHLPNADYVPGSSTAASAMGLLEDDAPYEAAICAPLIAAEQPGLNVLAEDIGDNPDAVTRFILVSRPGALPERTGADKTTVVVPLPEDHPGALMEILDQFASRGVNLSRIESRPTGQYLGHYFFSIDADGHATDSRVADALAGLHRISPATRFLGSYARADKQPAVVAPHTSDAAFASAHAWVDSILKGS”: “not failed”. Turning to “MSGSNVAPEDKRMEDRKFRANIPPQTIVFCTVYQTTIGLTNSQHQKIRLASLRLPLLFFQQRQTSAAPPKEDVMNEETLKKIQSNPKYLELVHKKTSLGWTLAIVMLVIYYGYILVLAFAPSLLGKPLYQGATMTVGIPVGVCIILSAFVLTGIYVRRANQEFDPLTQQIVEEAK”, the protein production entry is given as “failed”. The same measure for “SSGGKSAQGPEEGGVCITEALITKRNLTFPEDGELSEKMFHTLDELQTVRLDREGITTIRNLEGLQNLHSLYLQGNKIQQIENLACIPSLRFLSLAGNQIRQVENLLDLPCLQFLDLSENLIETLKLDEFPQSLLILNLSGNSCTNQDGYRELVTEALPLLLDLDGQPVVERWISDEEDEASSDEEFPELSGPFCSERGFLKELEQELSRHREHRQQTALTEHLLRMEMQPTLTDLPLLPGVPMAGDSSPSATPAQGEETVPEAVSSPQASSPTKKPCSLIPRGHQSSFWGRKGARAATAPKASVAEAPSTTKTTAKRSKK”: “not failed”; for “MPGSRDILADLVAFDTVSRESNLALIDYVRDYLAGFGVDSELFFDADGRKANLYATIGPSDRGGVCLSGHTDVVPADGQAWSVPPFRLSERDGRLYGRGTADMKGYLACVLAAVPAFLAAPLRLPVHLAFSYDEEVGCLGVRSLLAALERRPHKPLLCIIGEPTELKPVLGHKGKLAMRCEVHGAACHSAYAPQGVNAIEYAARLIGRLGEIGARLAVPERHDRRFDPPYSTVQTGLIQGGRALNIVPAECRFDFEVRALPADDPRQVAEELRDYAESELLPRMRAVERSTDIRFTPLSAYPGLLTADDSQAAELIGLLSGSTDFSTVAFGTEGGLFHQAGIPAVICGPGSMDQGHKPDEFVSLAQLEACDALLARLAAW”: “failed”. The value for “MANKFSAAVVYAVFSSFALNFFYQPGHVYASGATGAAQVVTELVARISGHNILPISASLILVNAPLFILAWRGIGKQFTVYTVITVVMSSVFIHFIPVTPLTHEPVINAVFGGAIMGFGVGNAMKSGISSGGTDIVSLYMRKKTGRSVGTLAFLVNGVIIFTAGVLFGWEYMLYSLIAIFVNSRVQDAIFTRQKRLQVMIVTKNPELLTKKLVNRFKHGVTILHDAEGGYTHTSQTVLMTVITMYEYQEFKDIIQKYDEHAFVSISENVRVLGKFAEVED” was “failed”; that for “MVVSLCSPGKCRKGTIVSRASLRANEGRRIERSTIAPSDLPPFRSRVSQPELPVERADHDADSVADGGWQATLCALEALAGGVDEAAGTGDGRRLLWALTLDADGVVGTIEPLEQTHGARGWSKPRPVPLARVAEDDTLPQWDVRVARAIRRDASRNRRHVLDRAAAVVALVGHPAVVLSHAPTVPMEVVESAPSLEAVREGDRYVLRIVPPLREALAMEDFLPAAARQEAESLRQITVLQDGPRRLRVVRFTPAQQGAAKLIAGGLSVPADAQARLDSTLRALAGHFQIHADSSGEARERDPESRLRAEVAPVGRGISLRLVVTPLGVLGPRLAPGHGRAQLMATIGGETHVTYRDLDAEHAHVAEVFEALPFLVQQAPAGGEHTWTLDDPEDALTAIEVLPGLAGVIDLEWPRGRELRVLPADIAQLAVSVETGSEWFKLVGELRVAEGLVISLEKLVAWAHGHAGRFMPMAHGVYVALTRQLRDRLRDLAGVGDGVRDGIRVPLVAAPWLDDVLAGAGIDPDAHFRTRVKQLRAARGHDAPVPPTLVAELRPYQLEGFRWMMSLAEAGFGACLADDMGLGKTLQSLAVLLARAAGGPALVVAPTSVCGNWATEARRFAPALRVHVYADGDREAIVGQAAAHDLVIVSYNLLQQARKAFCDRHWHTVVADEAQSFKNPSSRRAQAMFALPADCRIALSGTPVENRLAELWAVMRFCVPGLLGSLARFNEHFANPIERSGARDPRQRLRRMIAPFVLRRTKAQVLDELPPRTELVIRVTPEPTEAAHYEALRRQALSEAERALLRPRKDKKAPAAMTEPEARIHVLAQLMRMRRAACDPRLVTPDVGQPGAKVRAFAELAATLAANGHKTLVFSQFVDFLQMLRQALVDAGLAWQYLDGATPAGERTRRVAAFQAGEGDVFLISLKAGGFGLNLTAADYIVIADPWWNPAAEDQAMGRAHRIGQQRPVTVYRLIAAGTIEERIVDLHQGKRALADGVLDAMDGEAIGRDVPLPDVDELVGLLRR” was “failed”; that for “MSSATGSKIVVTGATGNVGTSVVRLLSEDPEVGTVLGLARRIPDWSPAKTEWAAVDLASEQSDLTSHFADADAVVHLAWAFQPTHDPATTWRTNVLGSIRVFEAVAAAGVPALVHASSVGAYSPGPKNHAVDESWPTHGWPDAAYCREKAYLERALDTFERDHPGIRVVRMRPAFLFKRESASEQRRIFGGRFLPGPAARPELLPFLPDVPGLRVQALHTDDAARAYRLAVRSADARGAFNLAAEPPVDAELLGELLGVRPVRLPRAAARSAIAAAWGMRLLPASPHLFDAVLRLPVMDCTRARVELGWGATRTATEVLEEFLRGLRQGAGADTEPMRGRKVG” was “failed”. The same measure for “MWLSEFEIVLRDRVIPNGAVRIEDGRIAEIRDRPVAHADIDGGGRLLLPGFIDMHGDMVEREVEPRIGVHVPMRIGIAELDKKLASCGITTAYAALSFIGASVTSGVLRSEDHTTEIIDTIAGMKDHLLVDHRTHARFEVTFTPAIPTLQKLMDAGRLDLISLMDHTPGQGQYRDVELYIARIAKERGMSVAAASEVVGKRMAGREGQGNVLNALQDLSARARAAGIVLASHDDDTLEKVELVHGLGAALSEFPVTLEAAQEARRLGMHTAMGAPNALRGESYSGNLSARQAYQAGLLDMLASDYHPASILPAVLGLAELRGDGLAAAAALTSANPANALGLTDRGAVEPGLLADFVVADRYPVPRVRATFRAGRMIYGDGTLALAGKAERLGPVAAERLPAA”: “failed”.
